Results reported in FireProtDB (doi:10.1093/protein/gzw068).

B1: Q37E, Q93D82 (parent)
chain: MSTAIVTNVKHFGGMGSALRLSEAGHTVACHDESFKQKDELEAFAETYPQLKPMSEQEPAELIEAVTSAYGQVDVLVSNDIFAPEFQPIDKYAVEDYRGAVEALQIRPFALVNAVASQMKKRKSGHIIFITSATPFGPWKELSTYTSARAGACTLANALSKELGEYNIPVFAIGPNYLHSEDSPYFYPTEPWKTNPEHVAHVKKVTALQRLGTQKELGELVAFLASGSCDYLTGQVFWLAGGFPMIERWPGMPE

Variants of: B1
Conditions: Rhizobium radiobacter; pH 7.7; Thermal; CD; Phosphate 5mM; structure 1PWX; whole UniProt chain shown

Variant | Tm [°C] | change of melting temperature, mutant - wild type (higher = more stable) [°C]
MSTAIVTNVKHFGGMGSALRLSEAGHTVACHDESFKEKDELEAFAETYPQLKPMSEQEPAELIEAVTSAYGQVDVLVSNDIFAPEFQPIDKYAVEDYRGAVEALQIRPFALVNAVASQMKKRKSGHIIFITSATPFGPWKELSTYTSARAGACTLANALSKELGEYNIPVFAIGPNYLHSEDSPYFYPTEPWKTNPEHVAHVKKVTALQRLGTQKELGELVAFLASGSCDYLTGQVFWLAGGFPMIERWPGMPE [Q37E] | 65 | 0
MSTAIVTNVKHFGGMGSALRLSEAGHTVACHDESFKQKDELEAFAETYPQLKPMSEQEPAELIEAVTSAYGQVDVLVSNDIFAPEFQPIDKYAVEDYRGAVEALQIRPFALVNAVAAQMKKRKSGHIIFITSATPFGPWKELSTYTSARAGACTLANALSKELGEYNIPVFAIGPNYLHSEDSPYFYPTEPWKTNPEHVAHVKKVTALQRLGTQKELGELVAFLASGSCDYLTGQVFWLAGGFPMIERWPGMPE [S117A] | 63.5 | -1.5
MSTAIVTNVKHFGGMGSALRLSEAGHTVACHDESFKQKDELEAFAETFPQLKPMSEQEPAELIEAVTSAYGQVDVLVSNDIFAPEFQPIDKYAVEDYRGAVEALQIRPFALVNAVASQMKKRKSGHIIFITSATPFGPWKELSTYTSARAGACTLANALSKELGEYNIPVFAIGPNYLHSEDSPYFYPTEPWKTNPEHVAHVKKVTALQRLGTQKELGELVAFLASGSCDYLTGQVFWLAGGFPMIERWPGMPE [Y48F] | 65.5 | 0.5
MSTAIVTNVKHFGGMGSALRLSEAGHTVACHDESFKQKDELEAFAETYPQLKPMSEQEPAELIEAVTSAYGQVDVLVSNDIFAPYFQPIDKYAVEDYRGAVEALQIRPFALVNAVASQMKKRKSGHIIFITSATPFGPWKELSTYTSARAGACTLANALSKELGEYNIPVFAIGPNYLHSEDSPYFYPTEPWKTNPEHVAHVKKVTALQRLGTQKELGELVAFLASGSCDYLTGQVFWLAGGFPMIERWPGMPE [E85Y] | 64.5 | -0.5
MSTAIVTNVKHFGGMGSALRLSEAGHTVACHDESFKQKDELEAFAETYPQLKPMSEQEPAELIEAVTSAYGQVDVLVSNVIFAPEFQPIDKYAVEDYRGAVEALQIRPFALVNAVASQMKKRKSGHIIFITSATPFGPWKELSTYTSARAGACTLANALSKELGEYNIPVFAIGPNYLHSEDSPYFYPTEPWKTNPEHVAHVKKVTALQRLGTQKELGELVAFLASGSCDYLTGQVFWLAGGFPMIERWPGMPE [D80V] | 64 | -1
MSTAIVTNVKHFGGMGSALRLSEAGHTVACHDESFKQKDELEAFAETYPQLKPMSEQEPAELIEAVTSAYGQVDVLVSNDIFAPEFQPIDKYAVEDYRGAVEALQIRPFALVNAVASQMKKRKSGHIIFITSATPFGPWKELSTYTSARAGACTLANALAKELGEYNIPVFAIGPNYLHSEDSPYFYPTEPWKTNPEHVAHVKKVTALQRLGTQKELGELVAFLASGSCDYLTGQVFWLAGGFPMIERWPGMPE [S160A] | 64.5 | -0.5
MSTAIVTNVKHFGGMGSALRLSEAGHTVACHDESFKQKDELEAFAETYPQLKPMSEQEPAELIEAVTSAYGQVDVLVSNDIFAPEFLPIDKYAVEDYRGAVEALQIRPFALVNAVASQMKKRKSGHIIFITSATPFGPWKELSTYTSARAGACTLANALSKELGEYNIPVFAIGPNYLHSEDSPYFYPTEPWKTNPEHVAHVKKVTALQRLGTQKELGELVAFLASGSCDYLTGQVFWLAGGFPMIERWPGMPE [Q87L] | 62.5 | -2.5
MSTAIVTNVKHFGGMGSALRLSEAGMTVACHDESFKQKDELEAFAETYPQLKPMSEQEPAELIEAVTSAYGQVDVLVSNDIFAPEFQPIDKYAVEDYRGAVEALQIRPFALVNAVASQMKKRKSGHIIFITSATPFGPWKELSTYTSARAGACTLANALSKELGEYNIPVFAIGPNYLHSEDSPYFYPTEPWKTNPEHVAHVKKVTALQRLGTQKELGELVAFLASGSCDYLTGQVFWLAGGFPMIERWPGMPE [H26M] | 64.5 | -0.5
MSTAIVTNVKHFGGMGSALRLSEAGHTVAVHDESFKQKDELEAFAETYPQLKPMSEQEPAELIEAVTSAYGQVDVLVSNDIFAPEFQPIDKYAVEDYRGAVEALQIRPFALVNAVASQMKKRKSGHIIFITSATPFGPWKELSTYTSARAGACTLANALSKELGEYNIPVFAIGPNYLHSEDSPYFYPTEPWKTNPEHVAHVKKVTALQRLGTQKELGELVAFLASGSCDYLTGQVFWLAGGFPMIERWPGMPE [C30V] | 64 | -1
MSTAIVTNVKHFGGMGSALRLSEAGHTVACHDESFKQKDELEAFLETYPQLKPMSEQEPAELIEAVTSAYGQVDVLVSNDIFAPEFQPIDKYAVEDYRGAVEALQIRPFALVNAVASQMKKRKSGHIIFITSATPFGPWKELSTYTSARAGACTLANALSKELGEYNIPVFAIGPNYLHSEDSPYFYPTEPWKTNPEHVAHVKKVTALQRLGTQKELGELVAFLASGSCDYLTGQVFWLAGGFPMIERWPGMPE [A45L] | 64 | -1
MSTAIVTNVKHFGGMGSALRLSEAGHTVACHDESFKQKDELEAFAETYPQLKPMSEQEPAELIEAVTSAYGQVDVLVSNDIFAPEFQPIDKYAVEDYRGAVEALQIRPFALVNAVASQMKKRKSGHIIFITSATPFGPWKELSTYTSARAGACTLANALSKELGEYNIPVFAIGPNYLHSEDSPYFYPTEPWLTNPEHVAHVKKVTALQRLGTQKELGELVAFLASGSCDYLTGQVFWLAGGFPMIERWPGMPE [K193L] | 65 | 0
MSTAIVTNVKHFGGMGSALRLSEAGHTVACHDESFKQKDELEAFAETYPQLKPMSEQEPAELIEAVTSAYGQVDVLVSNDIFAPEFQPIDKYAVEDYRGAVEALQIRPFALVNAVASQMKKRKSGHIIFITSATPFGPWKELSTYTSARAGACTLANALSKELGEYNIPVFAIGPNYLHSEDSPYFYPTEPWKTNPEHKAHVKKVTALQRLGTQKELGELVAFLASGSCDYLTGQVFWLAGGFPMIERWPGMPE [V199K] | 66.5 | 1.5
MSTAIVTNVKHFGGMGSALRLSEAGHTVACHDESFKQKDELEAFAETYPQLKPFSEQEPAELIEAVTSAYGQVDVLVSNDIFAPEFQPIDKYAVEDYRGAVEALQIRPFALVNAVASQMKKRKSGHIIFITSATPFGPWKELSTYTSARAGACTLANALSKELGEYNIPVFAIGPNYLHSEDSPYFYPTEPWKTNPEHVAHVKKVTALQRLGTQKELGELVAFLASGSCDYLTGQVFWLAGGFPMIERWPGMPE [M54F] | 63.5 | -1.5
MSTAIVTNVKHFGGMGSALRLSEAGHTVACHDESFKQKDELEAFAETYPQLKPMSEQEPAELIEAVQSAYGQVDVLVSNDIFAPEFQPIDKYAVEDYRGAVEALQIRPFALVNAVASQMKKRKSGHIIFITSATPFGPWKELSTYTSARAGACTLANALSKELGEYNIPVFAIGPNYLHSEDSPYFYPTEPWKTNPEHVAHVKKVTALQRLGTQKELGELVAFLASGSCDYLTGQVFWLAGGFPMIERWPGMPE [T67Q] | 63.5 | -1.5
MSTAIVMNVKHFGGMGSALRLSEAGHTVACHDESFKQKDELEAFAETYPQLKPMSEQEPAELIEAVTSAYGQVDVLVSNDIFAPEFQPIDKYAVEDYRGAVEALQIRPFALVNAVASQMKKRKSGHIIFITSATPFGPWKELSTYTSARAGACTLANALSKELGEYNIPVFAIGPNYLHSEDSPYFYPTEPWKTNPEHVAHVKKVTALQRLGTQKELGELVAFLASGSCDYLTGQVFWLAGGFPMIERWPGMPE [T7M] | 65 | 0
MKTAIVTNVKHFGGMGSALRLSEAGHTVACHDESFKQKDELEAFAETYPQLKPMSEQEPAELIEAVTSAYGQVDVLVSNDIFAPEFQPIDKYAVEDYRGAVEALQIRPFALVNAVASQMKKRKSGHIIFITSATPFGPWKELSTYTSARAGACTLANALSKELGEYNIPVFAIGPNYLHSEDSPYFYPTEPWKTNPEHVAHVKKVTALQRLGTQKELGELVAFLASGSCDYLTGQVFWLAGGFPMIERWPGMPE [S2K] | 66 | 1
MSTAIVTNVKHFGGMGSALRLSEAGHTVACHDESFKQKDELEAFAETYPQLKPMSEQEPAELIEAVTSAYGQVDVLVSNDIFAPEFQPIDKYAVEDYRGAVEALQIRPFALVHAVASQMKKRKSGHIIFITSATPFGPWKELSTYTSARAGACTLANALSKELGEYNIPVFAIGPNYLHSEDSPYFYPTEPWKTNPEHVAHVKKVTALQRLGTQKELGELVAFLASGSCDYLTGQVFWLAGGFPMIERWPGMPE [N113H] | 63 | -2
MSTAIVTNVKHFGGMGSALRLSEAGHTVACHDESFKQKDELEAFAETYPQLKPMSEQEPAELIEAVTSAYGQVDVLVSNDIFAPEFQPIDKYAVEDYRGAVEALQIRPFALVNAVASQMKKRKSGHIIFITSATPFGPWKELSTYTSARAGACTLANALSKELGEYNIPVFAIGPNYLHSEDSPYFYPTEPWKTNPEHVAHVKKVTALQRLGTQKELGELVAFLASGSCDYLTGQVFWLAGGFPMIERWPGMSE [P253S] | 62.5 | -2.5
MSTAIVTNVKHFGGMGSALRLSEAGHTVACHDESFKQKDELEAFAETYPQLKPMSEQEPAELIEAVTSAYGQVDVLVSNDIFAPEFQPIDKYAVEDYRGAVEALQIRPFALVNAVASQMKKRKSGHIIFITSATPFGPWKELSTYTSARAGACTLANALSKELGEYNIPVFAIGPNYLHSEDSPYFYPTEPWKTNPEHVAHVKKVTALQRLGTQKELGELVAFLASGSCDYLTGQIFWLAGGFPMIERWPGMPE [V236I] | 66.5 | 1.5
MSTAIVTNVKHFGGMGSALRLSEAGHTVACHDESFKQKDELEAFAETYPQLKPMSEQEPAELIEAVTSAYGQVDVLVSNDIFNPEFQPIDKYAVEDYRGAVEALQIRPFALVNAVASQMKKRKSGHIIFITSATPFGPWKELSTYTSARAGACTLANALSKELGEYNIPVFAIGPNYLHSEDSPYFYPTEPWKTNPEHVAHVKKVTALQRLGTQKELGELVAFLASGSCDYLTGQVFWLAGGFPMIERWPGMPE [A83N] | 63 | -2
MSTAIVTNVKHFGGMGSALRLSEAGHTVACHDESFKQKDELEAFAETYPQLKPMSEQEPAELIEAVTSAYGQVDVLVSNDIFAPEFQPIDKYAVEDYRAAVEALQIRPFALVNAVASQMKKRKSGHIIFITSATPFGPWKELSTYTSARAGACTLANALSKELGEYNIPVFAIGPNYLHSEDSPYFYPTEPWKTNPEHVAHVKKVTALQRLGTQKELGELVAFLASGSCDYLTGQVFWLAGGFPMIERWPGMPE [G99A] | 66 | 1
MSTAIVTNVKHFGGMGAALRLSEAGHTVACHDESFKQKDELEAFAETYPQLKPMSEQEPAELIEAVTSAYGQVDVLVSNDIFAPEFQPIDKYAVEDYRGAVEALQIRPFALVNAVASQMKKRKSGHIIFITSATPFGPWKELSTYTSARAGACTLANALSKELGEYNIPVFAIGPNYLHSEDSPYFYPTEPWKTNPEHVAHVKKVTALQRLGTQKELGELVAFLASGSCDYLTGQVFWLAGGFPMIERWPGMPE [S17A] | 65 | 0
MSTAIVTNVKHFGGMGSALRLSEAGHTVACHDESFKQKDELQAFAETYPQLKPMSEQEPAELIEAVTSAYGQVDVLVSNDIFAPEFQPIDKYAVEDYRGAVEALQIRPFALVNAVASQMKKRKSGHIIFITSATPFGPWKELSTYTSARAGACTLANALSKELGEYNIPVFAIGPNYLHSEDSPYFYPTEPWKTNPEHVAHVKKVTALQRLGTQKELGELVAFLASGSCDYLTGQVFWLAGGFPMIERWPGMPE [E42Q] | 64 | -1
